PMC5639704

These substances were tested against Human TRF2^TRFH (residues 42-245) (human) (assay: ITC).

Kd	Substance
19.8 µM	WT mNBS1 peptide
17 µM	WT hNBS1 peptide (423–438) (from UniProt O60934 423-438)
21.7 µM	mNBS1^S433A peptide
16 µM	hNBS1^S432A peptide (423–438) (from UniProt O60934 423-438)
